Measured values as given in the supplement of paper PMC5998384.

What was measured:
HeLa Kyoto [1] = assay: solubility in G1/S (NP-40 vs SDS abundance) (log2 ratio); higher = more soluble; settings: cell cycle stage: G1/S
HeLa Kyoto [2] = assay: solubility change mitosis vs G1/S (difference of NP-40 vs SDS log2 ratios) (log2 ratio difference); higher = more soluble in mitosis
HeLa Kyoto [3] = assay: thermal stability score vs G1/S (z-score of summed log2 fold changes over temperatures); higher = more thermally stable than in G1/S
[4] = cell cycle stage: early G1 (4.5 h after nocodazole release)
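For solubility change mitosis vs G1/S (difference of NP-40 vs SDS log2 ratios) in this document: synchronized HeLa Kyoto cells (double thymidine block for G1/S, nocodazole release for mitosis), protein amounts in NP-40 versus SDS lysates quantified by mass spectrometry, three biological replicates.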
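For solubility in G1/S (NP-40 vs SDS abundance) in this document: HeLa Kyoto cells arrested at G1/S by double thymidine block, proteins quantified by TMT10plex mass spectrometry in mild NP-40 versus SDS extracts, three biological replicates.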
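For thermal stability score vs G1/S (z-score of summed log2 fold changes over temperatures) in this document: synchronized HeLa Kyoto cells, proteins quantified by TMT10plex mass spectrometry, three biological replicates, mitosis taken 0.5 h after nocodazole release, G1/S directly after double thymidine block.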

Row | Substance | solubility in G1/S (log2) (HeLa Kyoto [1]) | solubility change mitosis (log2) (HeLa Kyoto [2]) | thermal stability score (HeLa Kyoto [3]; [4]) | thermal stability score (HeLa Kyoto [3]; cell cycle stage: mitosis)
1 | MNNKFDALKDDDSGDHDQNEENSTQKDGEKEKTERDKNQSSSKRKAVVPGPAEHPLQYNYTFWYSRRTPGRPTSSQSYEQNIKQIGTFASVEQFWRFYSHMVRPGDLTGHSDFHLFKEGIKPMWEDDANKNGGKWIIRLRKGLASRCWENLILAMLGEQFMVGEEICGAVVSVRFQEDIISIWNKTASDQATTARIRDTLRRVLNLPPNTIMEYKTHTDSIKMPGRLGPQRLLFQNLWKPRLNVP [EIF4E2] | 0.114 | 0.000807 | -1.02 | -0.941
2 | MALVSADSRIAELLTELHQLIKQTQEERSRSEHNLVNIQKTHERMQTENKISPYYRTKLRGLYTTAKADAEAECNILRKALDKIAEIKSLLEERRIAAKIAGLYNDSEPPRKTMRRGVLMTLLQQSAMTLPLWIGKPGDKPPPLCGAIPASGDYVARPGDKVAARVKAVDGDEQWILAEVVSYSHATNKYEVDDIDEEGKERHTLSRRRVIPLPQWKANPETDPEALFQKEQLVLALYPQTTCFYRALIHAPPQRPQDDYSVLFEDTSYADGYSPPLNVAQRYVVACKEPKKK [SGF29] | 0.435 | 0.314 | -0.0915 | -0.207
3 | MATAPSYPAGLPGSPGPGSPPPPGGLELQSPPPLLPQIPAPGSGVSFHIQIGLTREFVLLPAASELAHVKQLACSIVDQKFPECGFYGLYDKILLFKHDPTSANLLQLVRSSGDIQEGDLVEVVLSASATFEDFQIRPHALTVHSYRAPAFCDHCGEMLFGLVRQGLKCDGCGLNYHKRCAFSIPNNCSGARKRRLSSTSLASGHSVRLGTSESLPCTAEELSRSTTELLPRRPPSSSSSSSASSYTGRPIELDKMLLSKVKVPHTFLIHSYTRPTVCQACKKLLKGLFRQGLQCKDCKFNCHKRCATRVPNDCLGEALINGDVPMEEATDFSEADKSALMDESEDSGVIPGSHSENALHASEEEEGEGGKAQSSLGYIPLMRVVQSVRHTTRKSSTTLREGWVVHYSNKDTLRKRHYWRLDCKCITLFQNNTTNRYYKEIPLSEILTVESAQNFSLVPPGTNPHCFEIVTANATYFVGEMPGGTPGGPSGQGAEAARGWETAIRQALMPVILQDAPSAPGHAPHRQASLSISVSNSQIQENVDIATVYQIFPDEVLGSGQFGVVYGGKHRKTGRDVAVKVIDKLRFPTKQESQLRNEVAILQSLRHPGIVNLECMFETPEKVFVVMEKLHGDMLEMILSSEKGRLPERLTKFLITQILVALRHLHFKNIVHCDLKPENVLLASADPFPQVKLCDFGFARIIGEKSFRRSVVGTPAYLAPEVLLNQGYNRSLDMWSVGVIMYVSLSGTFPFNEDEDINDQIQNAAFMYPASPWSHISAGAIDLINNLLQVKMRKRYSVDKSLSHPWLQEYQTWLDLRELEGKMGERYITHESDDARWEQFAAEHPLPGSGLPTDRDLGGACPPQDHDMQGLAERISVL [PRKD2] | -0.115 | -0.188 | 0.521 | 0.296
4 | MAGAAEDARALFRAGVCAALEAWPALQIAVENGFGGVHSQEKAKWLGGAVEDYFMRNADLELDEVEDFLGELLTNEFDTVVEDGSLPQVSQQLQTMFHHFQRGDGAALREMASCITQRKCKVTATALKTARETDEDEDDVDSVEEMEVTATNDGAATDGVCPQPEPSDPDAQTIKEEDIVEDGWTIVRRKK [TSR2] | 0.00907 | 0.0427 | -0.881 | 0.659
5 | MAGAENWPGQQLELDEDEASCCRWGAQHAGARELAALYSPGKRLQEWCSVILCFSLIAHNLVHLLLLARWEDTPLVILGVVAGALIADFLSGLVHWGADTWGSVELPIVGKAFIRPFREHHIDPTAITRHDFIETNGDNCLVTLLPLLNMAYKFRTHSPEALEQLYPWECFVFCLIIFGTFTNQIHKWSHTYFGLPRWVTLLQDWHVILPRKHHRIHHVSPHETYFCITTGWLNYPLEKIGFWRRLEDLIQGLTGEKPRADDMKWAQKIK [TMEM189] | -0.215 | 0.0319 | -3.23 | -3.53
6 | MEEGAPRQPGPSQWPPEDEKEVIRRAIQKELKIKEGVENLRRVATDRRHLGHVQQLLRSSNRRLEQLHGELRELHARILLPGPGPGPAEPVASGPRPWAEQLRARHLEALRRQLHVELKVKQGAENMTHTCASGTPKERKLLAAAQQMLRDSQLKVALLRMKISSLEASGSPEPGPELLAEELQHRLHVEAAVAEGAKNVVKLLSSRRTQDRKALAEAQAQLQESSQKLDLLRLALEQLLEQLPPAHPLRSRVTRELRAAVPGYPQPSGTPVKPTALTGTLQVRLLGCEQLLTAVPGRSPAAALASSPSEGWLRTKAKHQRGRGELASEVLAVLKVDNRVVGQTGWGQVAEQSWDQTFVIPLERARELEIGVHWRDWRQLCGVAFLRLEDFLDNACHQLSLSLVPQGLLFAQVTFCDPVIERRPRLQRQERIFSKRRGQDFLRASQMNLGMAAWGRLVMNLLPPCSSPSTISPPKGCPRTPTTLREASDPATPSNFLPKKTPLGEEMTPPPKPPRLYLPQEPTSEETPRTKRPHMEPRTRRGPSPPASPTRKPPRLQDFRCLAVLGRGHFGKVLLVQFKGTGKYYAIKALKKQEVLSRDEIESLYCEKRILEAVGCTGHPFLLSLLACFQTSSHACFVTEFVPGGDLMMQIHEDVFPEPQARFYVACVVLGLQFLHEKKIIYRDLKLDNLLLDAQGFLKIADFGLCKEGIGFGDRTSTFCGTPEFLAPEVLTQEAYTRAVDWWGLGVLLYEMLVGECPFPGDTEEEVFDCIVNMDAPYPGFLSVQGLEFIQKLLQKCPEKRLGAGEQDAEEIKVQPFFRTTNWQALLARTIQPPFVPTLCGPADLRYFEGEFTGLPPALTPPAPHSLLTARQQAAFRDFDFVSERFLEP [PKN3] | -0.177 | 0.0781 | -0.36 | -0.411
7 | ESPL1 | -0.00542 | -0.204 | 0.555 | 2.16
8 | MSFNLQSSKKLFIFLGKSLFSLLEAMIFALLPKPRKNVAGEIVLITGAGSGLGRLLALQFARLGSVLVLWDINKEGNEETCKMAREAGATRVHAYTCDCSQKEGVYRVADQVKKEVGDVSILINNAGIVTGKKFLDCPDELMEKSFDVNFKAHLWTYKAFLPAMIANDHGHLVCISSSAGLSGVNGLADYCASKFAAFGFAESVFVETFVQKQKGIKTTIVCPFFIKTGMFEGCTTGCPSLLPILEPKYAVEKIVEAILQEKMYLYMPKLLYFMMFLKSFLPLKTGLLIADYLGILHAMDGFVDQKKKL [SDR16C5] | -0.478 | -0.0428 | 0.864 | -0.987
9 | MTGLYELVWRVLHALLCLHRTLTSWLRVRFGTWNWIWRRCCRAASAAVLAPLGFTLRKPPAVGRNRRHHRHPRGGSCLAAAHHRMRWRADGRSLEKLPVHMGLVITEVEQEPSFSDIASLVVWCMAVGISYISVYDHQGIFKRNNSRLMDEILKQQQELLGLDCSKYSPEFANSNDKDDQVLNCHLAVKVLSPEDGKADIVRAAQDFCQLVAQKQKRPTDLDVDTLASLLSSNGCPDPDLVLKFGPVDSTLGFLPWHIRLTEIVSLPSHLNISYEDFFSALRQYAACEQRLGK [NUS1] | 0.00319 | 0.162 | -0.859 | 0.124
10 | PTEN | -0.27 | 0.174 | -0.257 | 0.0266
11 | MAAVELEWIPETLYNTAISAVVDNYIRSRRDIRSLPENIQFDVYYKLYQQGRLCQLGSEFCELEVFAKVLRALDKRHLLHHCFQALMDHGVKVASVLAYSFSRRCSYIAESDAAVKEKAIQVGFVLGGFLSDAGWYSDAEKVFLSCLQLCTLHDEMLHWFRAVECCVRLLHVRNGNCKYHLGEETFKLAQTYMDKLSKHGQQANKAALYGELCALLFAKSHYDEAYKWCIEAMKEITAGLPVKVVVDVLRQASKACVVKREFKKAEQLIKHAVYLARDHFGSKHPKYSDTLLDYGFYLLNVDNICQSVAIYQAALDIRQSVFGGKNIHVATAHEDLAYSSYVHQYSSGKFDNALFHAERAIGIITHILPEDHLLLASSKRVKALILEEIAIDCHNKETEQRLLQEAHDLHLSSLQLAKKAFGEFNVQTAKHYGNLGRLYQSMRKFKEAEEMHIKAIQIKEQLLGQEDYEVALSVGHLASLYNYDMNQYENAEKLYLRSIAIGKKLFGEGYSGLEYDYRGLIKLYNSIGNYEKVFEYHNVLSNWNRLRDRQYSVTDALEDVSTSPQSTEEVVQSFLISQNVEGPSC [APPBP2] | -0.17 | -0.168 | -0.105 | -0.0209
